# Data as given in the RNAGym collection of RNA variant scans (doi:10.7554/elife.80360).
# B1: CPEB3 Ribozyme (parent)
# chain: GGGGGCCACAGCAGAAGCGUUCACGUCGCGGCCCCUGUCAGAUUCUGGUGAAUCUGCGAAUUCUGCUGU
# Variants of: B1
# Assay: self-cleavage, relative activity (ratio to wild type); higher = more cleavage; co-transcriptional
row,Variant,self-cleavage
1,G5C C35A,0.0866
2,G5C A40C,0.213
3,G5C A40G,0.171
4,G5A G25C,0.137
5,G5A G25U,0.0968
6,G5A G25A,0.114
7,G4U U61C,0.174
8,G5A G65A,0.812
9,G5A G65C,0.532
10,G5A A42U,0.71
11,G5A A42G,0.812
12,G5C C39G,0.199
13,G5C C39A,0.134
14,G5C C39U,0.184
15,G5C U44C,0.179
16,G5U C29A,0.0808
17,G5U C29G,0.0724
18,G5A G17U,0.152
19,G5C C63G,0.109
20,G5C C63A,0.119
21,G5C C63U,0.207
22,G4U U55G,0.203
23,G4U U55A,0.496
24,G4U U55C,0.298

row,Variant,self-cleavage
1,G5A A13C,0.637
2,G5A C7U,0.501
3,G5A C7A,0.134
4,G5A C7G,0.0847
5,G5U C9U,0.877
6,G5U C9A,0.716
7,G5U A10C,0.604
8,G5U A10G,0.543
9,G5U A10U,0.581
10,G5A C18G,0.0833
11,G5A C18U,0.483
12,G5C A59G,0.229
13,G5C G31U,0.143
14,G5A G31C,0.118
15,G5A G31A,0.158
16,G5A G31U,0.221
17,G5U C7U,0.0819
18,G5U C7A,0.086
19,G5U C7G,0.0615
20,G5C G68C,0.317
21,G5C G68U,0.483
22,G5C G68A,0.473
23,G5C U26A,0.156
24,G5C U26G,0.228

row,Variant,self-cleavage
1,G5A C54U,0.893
2,G5A C54G,0.394
3,G5A C54A,0.546
4,G5C G50A,0.202
5,G5C G50C,0.182
6,G5C C34U,0.3
7,G5C C34A,0.268
8,G5C C34G,0.22
9,G5A A10C,0.914
10,G5A A10U,0.953
11,G5A A10G,0.915
12,G5C G11U,0.108
13,G5A C6U,0.189
14,G5A C6A,0.103
15,G5A A51C,0.82
16,G5A A51U,0.859
17,G5A A51G,0.849
18,G4U U53C,0.323
19,G4U U53A,0.412
20,G4U U53G,0.226
21,G5C C22U,0.0752
22,G5C C22G,0.0735
23,G5A U49A,0.926
24,G5A U26A,0.498

row,Variant,self-cleavage
1,G5A U26C,0.853
2,G5A U26G,0.611
3,G5C G30C,0.124
4,G5C G30U,0.0983
5,G5C G30A,0.177
6,G5U A52U,0.232
7,G5U A52G,0.266
8,G5A G41C,0.359
9,G5A G41U,0.488
10,G5A G41A,0.512
11,G4U U64A,0.535
12,G4U U64C,0.602
13,G4U U64G,0.589
14,G5U A51G,0.198
15,G5U A51C,0.187
16,G5U A51U,0.236
17,G5A G50C,0.902
18,G5A G50A,0.941
19,G5C A8G,0.242
20,G5C A8C,0.199
21,G5C A8U,0.156
22,G5A C33A,0.296
23,G5A C33G,0.136
24,G5U C27U,0.032

row,Variant,self-cleavage
1,G5U C27G,0.0619
2,G5C C27U,0.138
3,G5A U69A,0.994
4,G5A U69C,1.05
5,G5A U69G,1.03
6,G5U C22G,0.09
7,G5C U20G,0.0813
8,G5A C9A,1.01
9,G5C G28U,0.0856
10,G5C G28C,0.0894
11,G5C U64C,0.262
12,G5C U64A,0.246
13,G5C U64G,0.105
14,G5C G37A,0.119
15,G5C G37C,0.103
16,G5C G37U,0.179
17,G5C U62A,0.169
18,G5U C34A,0.0978
19,G5U C34G,0.0508
20,G5U C57A,0.11
21,G5U C35G,0.08
22,G5C A10G,0.289
23,G5C A10C,0.176
24,G5U C18G,0.0898

row,Variant,self-cleavage
1,G5U C18A,0.0315
2,G5A C45U,0.913
3,G5A C45A,0.832
4,G5A C45G,0.823
5,G5A U55A,0.69
6,G5A U55C,0.403
7,G5C A51C,0.152
8,G5C A51G,0.228
9,G5C A51U,0.269
10,G5A A40G,0.866
11,G5A A40C,0.213
12,G5U C39U,0.101
13,G5A G68A,0.976
14,G5A G68U,0.948
15,G5A G68C,0.947
16,G5A G30U,0.125
17,G5C C29U,0.133
18,G5C C29A,0.144
19,G5A G58A,0.723
20,G5A G58U,0.906
21,G5A G58C,0.758
22,G5A A16G,0.811
23,G5A A16U,0.639
24,G5A U53G,0.335

row,Variant,self-cleavage
1,G5A C29U,0.303
2,G5A C29A,0.229
3,G5U A23G,0.253
4,G5U A23U,0.402
5,G5U A23C,0.211
6,G5A G11U,0.778
7,G5A G11C,0.578
8,G5C C9A,0.386
9,G5C C9U,0.412
10,G5C C9G,0.487
11,G5C G25U,0.0626
12,G5C G25C,0.0981
13,G4U U69A,0.952
14,G5A A52C,0.837
15,G5A A52U,0.891
16,G5A A52G,0.92
17,G4U U67A,0.9
18,G4U U67C,0.946
19,G5C G56A,0.158
20,G5U A40C,0.088
21,G4U U49G,0.357
22,G5A A8G,0.725
23,G5A A8U,0.894
